Literature values as cited in patent publication US20170080049A1, “MEDICINE AGAINST GROWTH FAILURE INDUCED BY ADMINISTRATION OF STEROID” (DAIICHI SANKYO COMPANY, LIMITED, priority 2014, published 2017).
Positions of bridges follow the written chain, without caps; N, C: chain ends. No end group written: not given here.

Experiments:
NPR-B = molecular target: T1, NPR-B (Homo sapiens, UniProt P20594); conditions: Furuya et al. 1992; US 2010-305031; cited from earlier work
T1 sequence (P20594 23-1047): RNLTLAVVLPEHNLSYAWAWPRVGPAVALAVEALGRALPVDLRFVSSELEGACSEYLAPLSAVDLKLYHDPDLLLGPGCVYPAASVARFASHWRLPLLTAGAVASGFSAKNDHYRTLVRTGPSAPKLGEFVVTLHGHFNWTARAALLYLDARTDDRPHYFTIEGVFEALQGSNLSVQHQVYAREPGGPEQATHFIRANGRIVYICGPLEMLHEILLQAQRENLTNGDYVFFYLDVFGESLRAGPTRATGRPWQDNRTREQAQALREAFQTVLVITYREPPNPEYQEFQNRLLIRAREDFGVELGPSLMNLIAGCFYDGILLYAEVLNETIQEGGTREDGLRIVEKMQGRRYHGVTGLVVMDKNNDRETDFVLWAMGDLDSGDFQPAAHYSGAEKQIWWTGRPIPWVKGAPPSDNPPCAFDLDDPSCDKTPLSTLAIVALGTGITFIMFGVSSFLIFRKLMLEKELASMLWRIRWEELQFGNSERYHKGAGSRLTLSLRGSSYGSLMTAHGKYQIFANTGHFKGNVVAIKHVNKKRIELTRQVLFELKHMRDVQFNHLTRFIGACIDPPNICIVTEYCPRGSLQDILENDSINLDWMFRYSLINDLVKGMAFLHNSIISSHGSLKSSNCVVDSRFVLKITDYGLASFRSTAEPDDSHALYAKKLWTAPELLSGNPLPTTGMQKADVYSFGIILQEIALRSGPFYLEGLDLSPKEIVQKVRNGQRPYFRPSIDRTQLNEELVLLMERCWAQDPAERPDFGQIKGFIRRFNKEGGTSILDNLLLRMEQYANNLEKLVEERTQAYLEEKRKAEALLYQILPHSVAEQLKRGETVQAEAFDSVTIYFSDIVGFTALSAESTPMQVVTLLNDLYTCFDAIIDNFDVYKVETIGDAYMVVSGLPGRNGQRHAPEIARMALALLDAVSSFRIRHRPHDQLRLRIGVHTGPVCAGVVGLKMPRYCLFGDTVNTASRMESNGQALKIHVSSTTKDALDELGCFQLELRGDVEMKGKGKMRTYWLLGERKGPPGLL

normal mice = conditions: continuous intravenous administration, normal mice (Non Patent Literature 9, 10); cited from earlier work

| Substance | NPR-B agonist activity compared with hCNP-22 (in words) (NPR-B) | elongation of bone (in words) (normal mice) |
| --- | --- | --- |
| CNP6-22: peptide consisting of only the ring structure (amino acid Nos. 6 to 22 of SEQ ID NO: 1) (CFGLKLDRIGSMSGLGC; disulfide 1-17 (inferred)) | almost the same NPR-B agonist activity as that of hCNP-22 | – |
| CNP-22: human-derived CNP-22 consisting of 22 amino acids, GLSKGCFGLK LDRIGSMSGL GC (GLSKGCFGLKLDRIGSMSGLGC) | – | promoted |
